Measurements reported in patent US20190194323A1 (ALLAKOS, published 2019).

What was measured:
[1] = target: Siglec-7 on primary human cells (NK cells, CD8+ tumor-infiltrating T cells) (human) (UniProt Q9Y286)
[2] = target: T1, Siglec-7-ECD (human, UniProt Q9Y286 19-353); assay: bio-layer interferometry (ForteBio): antibody captured on the sensor, Siglec-7-ECD as analyte, 1:1 global fit
T1 construct: also called p75; AIRM
Protocol: A panel of antibodies was evaluated for binding to Siglec-7. The results identified anti-Siglec-7 antibodies that have improved KD values compared to commercially available anti-Siglec-7 antibodies (FIG. 7).
Antibody binding analysis was carried out by bio-layer interferometry (ForteBio). […] Antibodies were captured on anti-mouse kinetic sensors at 0.5 ug/mL; Siglec-7-ECD was used as analyte and diluted in assay buffer from 50 nM to 1.56 nM with 2× dilutions. Two-minute associations were conducted, followed by 10-minute dissociations. Results were determined relative to a control empty reference AHC sensor, and analyzed using ForteBio analysis software with 1:1 global fit parameters.

[3] = target: T2, Siglec-7-ECD-Fc (human, UniProt Q9Y286 19-353); assay: ligand blocking on cells, flow cytometry: antibody dilutions pre-mixed with 10 nM Siglec-7-ECD-Fc, then binding of Siglec-7-ECD-Fc to Siglec-7 ligands on A375 melanoma cells
T2 construct: also called recombinant Siglec-7-Fc fusion protein; Siglec-7-Fc; not shown: human Fc (huFc)
Protocol: Recombinant Siglec-7-Fc was added to A375 cells in the presence of anti-Siglec-7 antibodies at increasing concentrations and binding of the complex was detected on the cell surface.
Human melanoma cell line A375, which expresses high level of ligands for Siglec-7, was used to determine the blocking activity of anti-Siglec-7 antibodies in a cell based assay. Two-fold serial dilutions of anti-Siglec-7 antibodies (40 nM to 40 pM) were combined with 10 nM Siglec-7-ECD-Fc in FACS buffer (PBS/2% BSA) and incubated on ice for 30 minutes. 2.5×10e4 A375 cells per well were added to round bottom 96-well tissue culture plates in FACS buffer, plates were centrifuged at 400 g for 2 min, supernatant was removed and cells were re-suspended in 100 ul of the antibody-Siglec-7 complexes. After a 1 hour incubation on ice, cells were washed twice and incubated for 30 minutes with goat anti-human F(ab′)₂ fragment conjugated to AF647 (Jackson IR labs) at 1 ug/ml in FACS buffer. After two more washes, cells were fixed in PBS/2% PFA and acquired on a Novocyte flow cytometer (ACEA biosciences). IC₅₀ values for blocking were determined based on plotting mean fluorescence in the APC channel and analysis using Prism Graphpad software.

[4] = target: Siglec-7 on primary human cells (NK cells, CD8+ tumor-infiltrating T cells) (human) (UniProt Q9Y286); remark: listed apart in the source
[5] = target: T1, Siglec-7-ECD; assay: value quoted in the legend box of the internalization graph; same value as in the Figure 7 table (bio-layer interferometry)
[6] = target: T3, Siglec-7 on primary human cells (NK cells, CD8+ tumor-infiltrating T cells) (human, UniProt Q9Y286 19-467); assay: cell-based or functional assay
[7] = target: T1, Siglec-7-ECD; assay: monovalent Fab; bio-layer interferometry (ForteBio) per Methods
[8] = target: T1, Siglec-7-ECD; assay: monovalent Fab; bio-layer interferometry (ForteBio) per Methods; No. 12 of Table 1 (second entry of the pair; No. 2 gives 250-500)
[9] = target: T1, Siglec-7-ECD; assay: monovalent Fab; bio-layer interferometry (ForteBio) per Methods; lower end of the range 250-500; No. 20 of Table 1
[10] = target: T1, Siglec-7-ECD; assay: monovalent Fab; bio-layer interferometry (ForteBio) per Methods; upper end of the range 250-500; No. 20 of Table 1
[11] = target: T1, Siglec-7-ECD; assay: monovalent Fab; bio-layer interferometry (ForteBio) per Methods; No. 13 of Table 1 (second entry of the pair; No. 6 also gives >500)
[12] = target: T3, Siglec-7 on primary human cells (NK …); assay: cell-based or functional assay; remark: listed apart in the source

Siglec-7 on primary human cells (NK cells, CD8+ tumor-infiltrating T cells) (human), sequence (Q9Y286 19-467 limits assumed): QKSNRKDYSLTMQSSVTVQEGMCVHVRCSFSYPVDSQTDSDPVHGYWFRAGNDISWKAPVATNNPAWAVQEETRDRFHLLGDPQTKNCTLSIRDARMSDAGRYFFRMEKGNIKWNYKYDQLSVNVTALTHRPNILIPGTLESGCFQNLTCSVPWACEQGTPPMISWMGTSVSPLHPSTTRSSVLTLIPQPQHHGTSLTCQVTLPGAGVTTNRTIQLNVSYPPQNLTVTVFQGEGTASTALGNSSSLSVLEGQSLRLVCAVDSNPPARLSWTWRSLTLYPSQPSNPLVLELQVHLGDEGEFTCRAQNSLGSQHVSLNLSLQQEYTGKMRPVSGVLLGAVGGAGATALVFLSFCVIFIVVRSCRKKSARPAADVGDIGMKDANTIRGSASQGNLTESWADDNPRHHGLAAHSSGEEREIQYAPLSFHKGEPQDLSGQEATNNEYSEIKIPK
T3 sequence (Q9Y286 19-467 limits assumed): as above
T1 sequence (Q9Y286 19-353 limits assumed): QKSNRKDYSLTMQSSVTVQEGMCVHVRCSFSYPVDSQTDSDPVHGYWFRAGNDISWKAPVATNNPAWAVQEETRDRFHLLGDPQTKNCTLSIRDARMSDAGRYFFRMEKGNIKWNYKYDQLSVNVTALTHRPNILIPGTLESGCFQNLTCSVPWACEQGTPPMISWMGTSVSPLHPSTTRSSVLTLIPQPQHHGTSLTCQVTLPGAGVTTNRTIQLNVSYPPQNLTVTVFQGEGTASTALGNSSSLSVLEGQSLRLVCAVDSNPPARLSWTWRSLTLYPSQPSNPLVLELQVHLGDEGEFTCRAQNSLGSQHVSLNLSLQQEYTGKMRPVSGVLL
T2 sequence (Q9Y286 19-353): as the sequence (Q9Y286 19-353 limits assumed) above

Row | Molecule | Kd [2] | IC50 [3] | IC50 of Siglec-7 internalization on NK cells (24 h, PBMC; remaining surface Siglec-7 stained with 4B12-AF647) [6] | also measured
1 | QA79 (antibody) | 0.706 nM | 7.49 nM | – | IC50 of Siglec-7 internalization on NK cells (24 h, PBMC; remaining surface Siglec-7 stained with 4B12-AF647) [1]: 0.326 nM
2 | anti-Siglec-7 antibody clone S7.7 (BioLegend) | 0.422 nM | 4.26 nM | – | IC50 of Siglec-7 internalization on NK cells (24 h, PBMC; remaining surface Siglec-7 stained with 4B12-AF647) [1]: 0.469 nM; IC50 (read off the curve) [4]: 0.07 µg/mL; Kd [5]: 0.422 nM
3 | monoclonal antibody 16H11 (antibody, V domains shown, Parental antibody; The Methods capture antibodies on anti-mouse sensors) VH: QVQLHQSGAELVKPGASVKISCKGSGYDFSNFWMNWVKQRPGKGLEWIGQIYPGDGEIKYNGKFKGKATLTADESSSTAYIHLSSLTSEDSAVYFCARDDYLRAMDYWGQGTSVTVSS VL: DIQMTQSPASLSASVGETVTITCRASGNIHNYLAWFQQKQGKSPHFLVYSAKALADGVPSRFSGSGSGTQYSLKINSLQPEDFGTYYCQHFWSSPYTFGGGTKLEIK | 0.035 nM | 7.42 nM | 0.0106 nM | –
4 | humanized 16H11-derived Fab, VH AK417-17 / VL AK418-2 (Fab, V domains shown, Measured as monovalent Fab; also called No. 2; No. 12) VH: QVQLVQSGAEVKKPGSSVKVSCKASGYDFSNFWMNWVRQAPGQGLEWMGGIYPGDGEINYAQKFQGRVTITADESTSTAYMELSSLRSEDTAVYYCARDDYLRAMDIWGQGTMVTVSS VL: DIQMTQSPSSLSASVGDRVTITCRASGNIHNYLAWYQQKPGKAPKFLLYSAKRLESGVPSRFSGSGSGTDYTLTISSLQPEDFATYYCQHFWSSPYTFGGGTKVEIK | – | – | – | Kd [7]: 0.25 to 0.5 nM; Kd [8]: > 0.5 nM
5 | humanized 16H11-derived Fab, VH AK417-17 / VL AK435-7 (Fab, V domains shown, Measured as monovalent Fab; also called No. 14; No. 20) VH: QVQLVQSGAEVKKPGSSVKVSCKASGYDFSNFWMNWVRQAPGQGLEWMGGIYPGDGEINYAQKFQGRVTITADESTSTAYMELSSLRSEDTAVYYCARDDYLRAMDIWGQGTMVTVSS VL: DIQMTQSPSSLSASVGDRVTITCRASQNIHNYLAWYQQKPGKAPKFLLYSAKRLEDGVPSRFSGSGSGTDYTLTISSLQPEDFATYYCQHFWSSPYTFGGGTKVEIK | – | – | – | Kd [7]: > 0.5 nM; Kd [9]: ≥ 0.25 nM; Kd [10]: ≤ 0.5 nM
6 | humanized 16H11-derived Fab, VH AK417-17 / VL AK419-2 (Fab, V domains shown, Measured as monovalent Fab; also called No. 6; No. 13) VH: QVQLVQSGAEVKKPGSSVKVSCKASGYDFSNFWMNWVRQAPGQGLEWMGGIYPGDGEINYAQKFQGRVTITADESTSTAYMELSSLRSEDTAVYYCARDDYLRAMDIWGQGTMVTVSS VL: DIQMTQSPSSLSASVGDRVTITCRASQNIHNYLAWYQQKPGKAPKFLLYSAKRLESGVPSRFSGSGSGTDYTLTISSLQPEDFATYYCQHFWSSPYTFGGGTKVEIK | – | – | – | Kd [7]: > 0.5 nM; Kd [11]: > 0.5 nM
7 | 5G10 (antibody, V domains shown) VH: EVKLEESGGGLVQPGGSMKVSCVASGFTFSNYWMNWVRQSPEKGLEWVAQIRLKSDNYATHYAESVKGRFTISRDDSKSSVYLQMNNLRAEDTGIYYCTEGDYDIFAYWGQGTLVTVSA VL: DIQMTQTTSSLSASLGDRVTISCSASQGITNYLNWYQQKPDGTVKLLIYYTSILHSGVPSRFSGSGSGTDYSLTISNLEPEDIATYYCQQYSKPPYTFGGGTKLEIK | 0.001 nM | 3.07 nM | 0.206 nM | –
8 | 2G12 (antibody, V domains shown) VH: QVQLQQPGAELVKPGASVKLSCKASGYTFTSYWMQWVKQRPGQGLEWIGEIDPSVSYTEYNQKFKGKATLTVDTSSSTAYMQLSSLTSEDSAVYFCARWSKDYYGMDYWGQGTSVTVSS VL: DIVLTQSHKFMSTSVGDRVTITCKASQDVSTAVAWYQQKPGQSPKLLIYWTSTRHTGVPDRFTGSGSGTDHTLTISSVQAEDLALYYCHQQYSTPPTFGGGTKLEIK | 0.205 nM | 19.8 nM | 0.0673 nM | –
9 | 9D4 (antibody) heavy chain variable region: QVTLKESGPGILQPSQTLSLTCSFSGFSLSTFGMGVGWIRQPSGKGLEWLAHIWWDDDKYYHPALKSRLTISKDTSNNQVFLKIANVDTAETATFYCARVERGYPLDHWGQGTTLRVSS light chain variable region: DIVLTQSPASLAVSLGQRATISCRASQSVSSSSYSYMHWYQQKPGQPPKLLIKYASNLKSGVPARFSGSGSGTDFTLTIHPVEEEDTATYYCQHSWEIPPTFGGGTKLEIK | 0.76 nM | 1.41 nM | 0.0875 nM | –
10 | monoclonal antibody 3F1 (antibody, V domains shown) VH: EFQLQQSGPEMVKPGASVKMSCKASGDSFTDYKINWVKQNNGKSLEWIGVINPDSGTTSYNQIFEGKATLTVDQSSSTAYMQVNRLTSEDSAVYYCTTWDDYSFYAMDYWGQGTSVTVSS VL: DVLMTQTPLSLPVSLGDQASISCRSSQNIVHSNGNTYLEWFLQKPGQSPKLLIYKVSNRFSGVPDRFSGSGSGTDFTLKISRVEAEDLGVYYCFQGSHIPWTFGGGTKLEIK | 0.041 nM | 8.5 nM | 0.013 nM | IC50 (read off the curve) [12]: ~0.001 µg/mL; Kd [5]: 0.041 nM
11 | 10E11 (antibody, V domains shown) VH: EVQLQQSGPELVKPGDSVKISCKASGYSSTGYFMNWVMQSHGKSLEWIGRIIPYNGDTFYNQKFKDKATLTVDKSSNTAHLELRSLTSEDSVVYYCAGPRIGGDYDGGSWLAYWGQGTLVTVSA VL: DIVMTQSQKFMSTTVGDRVSITCKASQNVGTAVAWYQQKPGHSPKLLIYSASNRYTGVPDRFTGSGYGTDFTLTISNMQSEDLADYFCQQYNSYPLTFGAGTKLELK | 0.522 nM | 6.23 nM | 0.0493 nM | –
